Among the data in publication PMC6683157 are Kd values, retold here.

Data set [1] deals with T1, Csm2 (wild type);Psy3 (wild type) (Saccharomyces cerevisiae;Saccharomyces cerevisiae) (UniProt P40465+Q12318).
T1 sequence 1: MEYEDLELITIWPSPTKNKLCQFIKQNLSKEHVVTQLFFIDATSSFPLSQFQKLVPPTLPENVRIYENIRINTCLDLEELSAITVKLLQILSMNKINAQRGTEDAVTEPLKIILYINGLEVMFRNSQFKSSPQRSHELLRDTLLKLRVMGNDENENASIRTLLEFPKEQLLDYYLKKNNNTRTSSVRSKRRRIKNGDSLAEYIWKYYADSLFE
T1 sequence 2: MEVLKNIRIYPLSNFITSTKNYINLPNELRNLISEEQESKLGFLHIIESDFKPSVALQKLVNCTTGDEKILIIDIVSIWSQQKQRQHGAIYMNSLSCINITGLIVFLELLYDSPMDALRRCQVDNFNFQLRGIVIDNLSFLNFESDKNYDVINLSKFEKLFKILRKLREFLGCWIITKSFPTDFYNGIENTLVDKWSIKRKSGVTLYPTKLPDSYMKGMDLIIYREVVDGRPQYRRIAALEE
In words: fluorescence anisotropy. As to conditions: heparin preparation, Anisotropy: 20 mM Tris pH 8.0, 20-25 nM DNA (2.5-5 nM in Fig 4d), EMSA: 25 mM Tris-HCl pH 8.0, 50 mM NaCl.

Data set [2] has as its target T2, Csm2 (wild type);Psy3 (wild type);Shu1;Shu2 (Saccharomyces cerevisiae;Saccharomyces cerevisiae;Saccharomyces cerevisiae;Saccharomyces cerevisiae) (UniProt P40465+Q12318+P38751+P38957).
T2 sequence 1: T1 sequence 1
T2 sequence 2: T1 sequence 2
T2 sequence 3: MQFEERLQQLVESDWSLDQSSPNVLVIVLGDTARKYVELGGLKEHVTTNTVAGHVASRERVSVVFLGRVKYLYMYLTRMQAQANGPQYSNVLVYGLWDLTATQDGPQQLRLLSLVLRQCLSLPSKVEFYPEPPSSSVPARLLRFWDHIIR
T2 sequence 4: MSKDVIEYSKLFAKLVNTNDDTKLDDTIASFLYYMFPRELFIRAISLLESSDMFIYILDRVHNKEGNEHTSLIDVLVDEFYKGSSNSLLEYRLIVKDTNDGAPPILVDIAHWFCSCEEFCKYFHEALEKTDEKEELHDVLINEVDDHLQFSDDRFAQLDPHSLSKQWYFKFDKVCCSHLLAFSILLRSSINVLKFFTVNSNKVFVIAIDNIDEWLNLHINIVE
The data set can be described thus: fluorescence anisotropy. The conditions noted are these: 5 nM DNA, quadratic fit; N21 of strand 1 = THF abasic analog (ssDNA at ss/ds junction); Anisotropy: 20 mM Tris pH 8.0, 20-25 nM DNA (2.5-5 nM in Fig 4d), protein titrated from 1 M NaCl stock; EMSA: 25 mM Tris-HCl pH 8.0, 50 mM NaCl, 1 mM DTT …. For orientation: In fluorescence polarisation assays a small probe gives low polarisation when free and higher when bound to something large.

Where [3] appears, read: N31 of strand 1 = THF abasic analog, protein titrated from 1 M NaCl …, 1 mM DTT, 100 u.
[4] abbreviates: N20 of strand 1 = THF abasic analog, protein titrated from 1 M NaCl …, 1 mM DTT, 100 u.

For orientation: Kd means a measure of binding affinity in units of concentration. Read a high Kd as lower affinity. Regarding “CAGTGCCGAAGCTTGTCAAGNTTTTTTTTTTTTTTTTTTT / TTTTTTTTTTTTTTTTTTTTCTTGACAAGCTTGCGCACTG [AP6 double-flap]”, the Kd in data set [1] (text gives 71, N21 of strand 1 = THF abasic analog (ssDNA at ss/ds junction), protein titrated from 1 M NaCl stock, 1 mM DTT …) was found to be 72 nM; in data set [2], 72 nM.

Turning to “CAGTGCCGAAGCTTGTCAAGTTTTTTTTTTNTTTTTTTTT / TTTTTTTTTTTTTTTTTTTTCTTGACAAGCTTGCGCACTG [AP5 double-flap]”, the dissociation constant Kd in data set [1] (setting [3]) was 142 nM.

For the sequence “CAGTGCCGAAGCTTGTCAANTTTTTTTTTTTTTTTTTTTT / TTTTTTTTTTTTTTTTTTTTCTTGACAAGCTTGCGCACTG [AP7 double-flap]”, the Kd in data set [1] (setting [4]) amounted to 112 nM.

“CAGTGCCGANGCTTGTCAAGTTTTTTTTTTTTTTTTTTTT / TTTTTTTTTTTTTTTTTTTTCTTGACAAGCTTGCGCACTG [AP8 double-flap]” had a Kd in data set [1] (N10 of strand 1 = THF abasic analog (in dsDNA), protein titrated from 1 M NaCl stock, 1 mM DTT …) of 153 nM. That is a sub-micromolar value.

For “TTTTTTTTTNTTTTTTTTTTCTTGACAAGCTTGCGCACTG / CAGTGCGCAAGCTTGTCAAGTTTTTTTTTTTTTTTTTTTT [AP1 double-flap]”, in data set [1] (N10 of strand 1 = THF abasic analog (dSpacer), protein titrated from 1 M NaCl stock, 1 mM DTT …), the Kd turned out to be 105 nM. That is a sub-micromolar value.

The sequence “TTTTTTTTTTTTTTTTTTTNCTTGACAAGCTTGCGCACTG / CAGTGCGCAAGCTTGTCAAGTTTTTTTTTTTTTTTTTTTT [AP2 double-flap]” displayed a Kd in data set [1] (setting [4]) of 127 nM.

“TTTTTTTTTTTTTTTTTTTTCTTGACAAGCNTGCGCACTG / CAGTGCGCAAGCTTGTCAAGTTTTTTTTTTTTTTTTTTTT [AP4 double-flap]”: in data set [1] (setting [3]), the Kd is 131 nM.

For “TTTTTTTTTTTTTTTTTTTTNTTGACAAGCTTGCGCACTG / CAGTGCGCAAGCTTGTCAAGTTTTTTTTTTTTTTTTTTTT [AP3 double-flap]”, the Kd in data set [1] (N21 of strand 1 = THF abasic analog, protein titrated from 1 M NaCl …, 1 mM DTT, 100 u) turned out to be 104 nM.
